B1: hCdc14B^Q390A (Homo sapiens; Q390A) (protein)
chain: MSREGAGAALVAEVIKDRLCFAILYSRPKSASNVHYFSIDNELEYENFYADFGPLNLAMVYRYCCKINKKLKSITMLRKKIVHFTGSDQRKQANAAFLVGCYMVIYLGRTPEEAYRILIFGETSYIPFRDAAYGSCNFYITLLDCFHAVKKAMQYGFLNFNSFNLDEYEHYEKAENGDLNWIIPDRFIAFCGPHSRARLESGYHQHSPETYIQYFKNHNVTTIIRLNKRMYDAKRFTDAGFDHHDLFFADGSTPTDAIVKEFLDICENAEGAIAVHCKAGLGRTGTLIACYIMKHYRMTAAETIAWVRICRPGSVIGPQQQFLVMKQTNLWLEGDYFRQKLKGQENGQHRAAFSKLLSGVDDISINGVENQDQQEPEPYSDDDEINGVTAGDRLRALKSRRQSKTNAIPLT
notes: codons 1-411; N-terminal GST; expressed in E. coli
B2: ScCdc14^1-374 (Saccharomyces cerevisiae S288C) (protein)
chain: MRRSVYLDNTIEFLRGRVYLGAYDYTPEDTDELVFFTVEDAIFYNSFHLDFGPMNIGHLYRFAVIFHEILNDPENANKAVVFYSSASTRQRANAACMLCCYMILVQAWTPHQVLQPLAQVDPPFMPFRDAGYSNADFEITIQDVVYGVWRAKEKGLIDLHSFNLESYEKYEHVEFGDFNVLTPDFIAFASPQEDHPKGYLATKSSHLNQPFKSVLNFFANNNVQLVVRLNSHLYNKKHFEDIGIQHLDLIFEDGTCPDLSIVKNFVGAAETIIKRGGKIAVHCKAGLGRTGCLIGAHLIYTYGFTANECIGFLRFIRPGMVVGPQQHWLYLHQNDFREWKYTTRISLKPSEAIGGLYPLISLEEYRLQKKKLKD
B3: ScCdc14^1-449 (Saccharomyces cerevisiae S288C) (protein)
chain: MRRSVYLDNTIEFLRGRVYLGAYDYTPEDTDELVFFTVEDAIFYNSFHLDFGPMNIGHLYRFAVIFHEILNDPENANKAVVFYSSASTRQRANAACMLCCYMILVQAWTPHQVLQPLAQVDPPFMPFRDAGYSNADFEITIQDVVYGVWRAKEKGLIDLHSFNLESYEKYEHVEFGDFNVLTPDFIAFASPQEDHPKGYLATKSSHLNQPFKSVLNFFANNNVQLVVRLNSHLYNKKHFEDIGIQHLDLIFEDGTCPDLSIVKNFVGAAETIIKRGGKIAVHCKAGLGRTGCLIGAHLIYTYGFTANECIGFLRFIRPGMVVGPQQHWLYLHQNDFREWKYTTRISLKPSEAIGGLYPLISLEEYRLQKKKLKDDKRVAQNNIEGELRDLTMTPPSNGHGALSARNSSQPSTANNGSNSFKSSAVPQTSPGQPRKGQNGSNTIEDINNN
B4: ScCdc14^Q432E (Saccharomyces cerevisiae S288C; Q432E) (protein)
chain: B3 chain with Q432E
B5: ScCdc14^P433A/K435A (Saccharomyces cerevisiae S288C; K435A/P433A) (protein)
chain: B3 chain with P433A, K435A
B6: ScCdc14^Q432A (Saccharomyces cerevisiae S288C; Q432A) (protein)
chain: B3 chain with Q432A
B7: ScCdc14^Q432N (Saccharomyces cerevisiae S288C; Q432N) (protein)
chain: B3 chain with Q432N
B8: hCdc14B^1-411 (Homo sapiens) (protein)
chain: DRLCFAILYSRPKSASNVHYFSIDNELEYENFYADFGPLNLAMVYRYCCKINKKLKSITMLRKKIVHFTGSDQRKQANAAFLVGCYMVIYLGRTPEEAYRILIFGETSYIPFRDAAYGSCNFYITLLDCFHAVKKAMQYGFLNFNSFNLDEYEHYEKAENGDLNWIIPDRFIAFCGPHSRARLESGYHQHSPETYIQYFKNHNVTTIIRLNKRMYDAKRFTDAGFDHHDLFFADGSTPTDAIVKEFLDICENAEGAIAVHCKAGLGRTGTLIACYIMKHYRMTAAETIAWVRICRPGSVIGPQQQFLVMKQTNLWLEGDYFRQKLKGQENGQHRAAFSKLLSGVDDISINGVENQDQQEPEPYSDDDEINGVTQGDRLRALKSRRQSKTNAIPLT
notes: as for B1
B9: ScCdc14^S429E (Saccharomyces cerevisiae S288C; S429E) (protein)
chain: B3 chain with S429E

Positions count from the first letter of the chain named. Numbers in names are those of the source.

Drawing on PMC11407943, “Cdc14 phosphatases use an intramolecular pseudosubstrate motif to stimulate and regulate catalysis” (The Journal of Biological Chemistry, 2024), this text covers Km for nine proteins.

Substrate in the first data set: Cc1cc(=O)oc2c(F)c(OP(=O)(O)O)c(F)cc12
Assay: not given
Format: biochemical. Conditions: pH 7.5; 30.0 °C. From the text: Enzym e kcat (sec-1) KM (µM)
Regarding B1, the Km amounted to 2.88 µM. Same read-out and setting: for B2 the value was 0.76 µM; for B3, 8.4 µM. Turning to B4, the Km came to 1.11 µM. As for B5, the Michaelis constant (Km) was determined as 1.0 µM.

For the protein B6, the Km was determined as 0.72 µM. On the same count and under the same terms, for B7 the value was 0.92 µM; for B8, 46 µM.

Substrate in a further data set: Cc1cc(=O)oc2c(F)c(OP(=O)(O)O)c(F)cc12
Put plainly: purified protein, by the assay type. Conditions: pH 7.5; 30.0 °C.
Description: Data from velocity versus substrate concentration plots were fit with the Michaelis–Menten equation in GraphPad Prism (https://www.graphpad.com/) to determine steady-state kinetic parameters kcat and KM. For trans peptide stimulation assays, DiFMUP was used at a single concentration well above the measured KM for each enzyme. […] (where pS is phosphoSer), were assayed in Cdc14 reaction buffer with Biomol Green (Enzo Life Science) detection of released inorganic phosphate as previously described ([29]). Data were fit with a modified Michaelis–Menten equation including a substrate inhibition term in Prism.
After removing the Cdk1-bound affinity resin, we measured effects on Cdc14 steady-state kinetic parameters with DiFMUP.
Values are means of at least six independent measurements and error bars are SDs.
Regarding B3, the Km was 25 µM. B9: the Km worked out at 3.3 µM.
